Assay results published in patent US20160272706A1 (AstraZeneca / MedImmune, published 2016).

Columns and labels:
Human IL-13 [1] = target: T1, Human IL-13 (human, UniProt P35225 35-146); test: biochemical receptor-ligand inhibition assay, purified scFv titrated; the IL-13 receptor used is not named in Example 1
T1 construct: also called human interleukin 13 (Peprotech); the antigen

Human IL-13 [2] = target: T1, Human IL-13; test: IC50 of the parent scFv divided by IC50 of the clone, biochemical receptor-ligand inhibition assay, purified scFv
Human IL-13 [3] = target: T1, Human IL-13; test: IC50 of the parent scFv divided by IC50 of the clone, biochemical receptor-ligand inhibition assay, purified scFv (second panel)
Human IL-13 [4] = target: T1, Human IL-13; test: biochemical receptor-ligand inhibition assay, purified scFv titrated (second panel); the IL-13 receptor used is not named in Example 1

T1 sequence (P35225 35-146 limits assumed): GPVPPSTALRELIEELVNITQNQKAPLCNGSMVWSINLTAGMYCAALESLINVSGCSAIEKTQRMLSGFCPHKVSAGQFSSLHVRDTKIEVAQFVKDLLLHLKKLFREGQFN

| Binder | IC50 (Human IL-13 [1]) [nM] | Fld improvement (Human IL-13 [2]) [fold] | Fld improvement (Human IL-13 [3]) [fold] | IC50 (Human IL-13 [4]) [nM] |
| --- | --- | --- | --- | --- |
| 13NG0067 (scFv, V domains shown, purified scFv from the mini-recombination library; member of group m20; also called ZZ0SEF-H04; copies: 1 + 1) VH: QVQLVQSGAEVKKPGASVKVSCKASGYTFTNYGLSWVRQAPGQGLEWMGWINYDGGNTQYGQEFQGRVTMTTDTSTSTAYMELRGLRSDDTAVYYCARDSSSSWARWFFDLWGRGTLVTVSS VL: SYVLTQPPSVSVAPGKTARIPCGGNMVGARLVHWYQQKPGQAPVLIIMDDIDRPSGIPERFSGSNSGNTATLTISRVEAGDEADYYCQVWDTGSSPVVFGGGTKLTVL | 6.63 | 6.12 |  |  |
| 13NG0069 (scFv, V domains shown, purified scFv from the mini-recombination library; member of group m20; also called ZZ0SEA-A03; copies: 1 + 1) VH: QVQLVQSGAEVKKPGASVKVSCKASGYTFTNYGLSWVRQAPGQGLEWMGWINYDGGNTQYGQEFQGRVTMTTDTSTSTAYMELRSLRSDDTAVYYCARDSSSSWARWFFDLWGRGTLVTVSS VL: SYVLTQPPSVSVAPGKTARIPCGGNMVGARLVHWYQQKPGQAPVLIIMDDIDRPSGIPERFSGSNSGNTATLTISRVEAGDEADYYCQVWDTGSRPVVFGGGTKLTVL | 7.85 | 5.18 |  |  |
| 13NG0084 (scFv, V domains shown, purified scFv from the mini-recombination library; member of group m20; also called ZZ0SED-F07; copies: 1 + 1) VH: QVQLVQSGAEVKKPGASVKVSCKASGYTFTNYGLSWVRQAPGQGLEWMGWINYDGGNTQYGQEFQGRVTMTTDTSTSTAYMELRSLRSDDTAVYYCARDSSSSWARWFFDLWGRGTLVTVSS VL: SYVLTQPPSVSVAPGKTARIPCGGNLIAARLVHWYQQKPGQAPVLIVFDDEDRPSGIPERFSGSNSGNTATLTISRVEAGDEADYYCQVWDTGSSPVVFGGGTKLTVL |  |  | 4.3 | 10.7 |
| 13NG0076 (scFv, V domains shown, purified scFv from the mini-recombination library; member of group m20; also called ZZ0SEA-F10; copies: 1 + 1) VH: QVQLVQSGAEVKKPGASVKVSCKASGYTFTNYGLSWVRQAPGQGLEWMGWINYDGGNTQYGQEFQGRVTMTTDTSTSTAYMELRSLRSDDTAVYYCARDSSSSWARWFFDLWGRGTLVTVSS VL: SYVLTQPPSVSVAPGKTARIPCGGNMVGARLVHWYQQKPGQAPVLVIMDDIDRPSGIPERFSGSNSGNTATLTISRVEAGDEADYYCQVWDTGSRPVVFGGGTKLTVL | 7.98 | 5.09 |  |  |
| 13NG0078 (scFv, V domains shown, purified scFv from the mini-recombination library; member of group m20; also called ZZ0SFL-G06; copies: 1 + 1) VH: QVQLVQSGAEVKKPGASVKVSCKASGYTFTNYGLSWVRQAPGQGLEWVGWINYDGGNTQYGQEFQGRVTMTTDTSTSTAYMELRSLRSDDTAVYYCARDSSSSWARWFFDLWGRGTLVTVSS VL: SYVLTQPPSVSVAPGKTARIPCGGNLIAARLVHWYQQKPGQAPVLIMFDDQDRPSGIPERFSGSNSGNTATLTISRVETGDEADYYCQVWDTGSLPVVFGGGTKLTVL |  |  | 6.4 | 7.22 |
| 13NG0080 (scFv, V domains shown, purified scFv from the mini-recombination library; member of group m20; also called ZZ0SEA-D07; copies: 1 + 1) VH: QAQLVQSGAEVKKPGASVKVSCKASGYTFTNYGLSWVRQAPGQGLEWMGWINYDGGNTQYGQEFQGRVTMTTDTSTSTAYMELRSLRSDDTAVYYCARDSSSSWARWFFDLWGRGTLVTVSS VL: SYVLTQPPSVSVAPGKTARIPCGGNLIAARLVHWYQQKPGQAPVLIVFDDEDRPSGIPERFSGSNSGNTATLTISRVETGDEADYYCQVWDTGSSPVVFGGGTKLTVL |  |  | 4.1 | 11.2 |
| 13NG0071 (scFv, V domains shown, purified scFv from the mini-recombination library; member of group m20; also called ZZ0SEE-A09; copies: 1 + 1) VH: QVQLVQSGAEVKKPGASVKVSCKASGYTFTNYGLSWVRQAPGQGLEWMGWINYDGGNTQYGQEFQGRVTMTTDTSTSTAYMELRSLRSDDTAVYYCARDSSSSWARWFFDLWGRGTLVTVSS VL: SYVLTQPPSVSVAPGKTARIPCGGNMVGARLVHWYQQKPGQAPVLIVFDDEDRPSGIPERFSGSNSGNTATLTISRVEAGDEADYYCQVWDTGSLPVVFGGGTKLTVL | 10.7 | 3.8 |  |  |
| 13NG0082 (scFv, V domains shown, purified scFv from the mini-recombination library; member of group m20; also called ZZ0SEF-E03; copies: 1 + 1) VH: QVQLVQSGAEVKKPGASVKVSCKASGYTFTNYGLSWVRQAPGQGLEWMGWINYDGGNTQYGQEFQGRVTMTTDTSTSTAYMELRSLRSDDTAVYYCARDSSSSWARWFFDLWGRGTLVTVSS VL: SYVLTQPPSVSVAPGKTARIPCGGNMVGARLVHWYQQKPGQAPVLIVFDDEDRPSGIPERFSGSNSGNTATLTISRVEAGDEADYYCQVWDTGSRPVVFGGGTKLTVL |  |  | 4.2 | 11 |
| 13NG0087 (scFv, V domains shown, purified scFv from the mini-recombination library; member of group m20; also called ZZ0SEF-E05; copies: 1 + 1) VH: QVQLVQSGAEVKKPGASVKVSCKASGYTFTNYGLSWVRQAPGQGLEWMGWINYDGGNTQYGQEFQGRVTMTTDTSTSTAYMELRSLRSDDTAVYYCARDSSSSWARWFFDLWGRGTLVTVSS VL: SYVLTQPPSVSVAPGKTARIPCGGNMVAARLVHWYQQKPGQAPVLIMFDDQDRPSGIPERFSGSNSGNTATLTISRVEAGDEADYYCQVWDTGSLPVVFGGGTKLTVL |  |  | 6.5 | 7.11 |
| 13NG0081 (scFv, V domains shown, purified scFv from the mini-recombination library; member of group m20; the text gives two different numbers for the VH; also called ZZ0SE9-C11; copies: 1 + 1) VH: QVQLVQSGAEVKKPGASVKVSCKASGYTFTNYGLSWVRQAPGQGLEWVGWINYDGGNTQYGQEFQGRVTMTTDTSTSTAYMELRSLRSDDTAVYYCARDSSSSWARWFFDLWGRGTLVTVSS VL: SYVLTQPPSVSVAPGKTARIPCGGNLIGARLVHWYQQKPGQAPVLIVYDDMDRPSGIPERFSGSNSGNTATLTISRVEAGDEADYYCQVWDTGSRPVVFGGGTKLTVL |  |  | 5.2 | 8.9 |
| 13NG0068 (scFv, V domains shown, purified scFv from the mini-recombination library; member of group m20; also called ZZ0SEB-B02; copies: 1 + 1) VH: QVQLVQSGAEVKKPGASVKVSCKASGYTFTNYGLSWVRQAPGQGLEWVGWINYDGGNTQYGQEFQGRVTMTTDTSTGTAYMELRSLRSDDTAVYYCARDSSSSWARWFFDLWGRGTLVTVSS VL: SYVLTQPPLVSVAPGKTARIPCGGNLIGARLVHWYQQKPGQAPVLIIMDDIDRPSGIPERFSGSNSGNTATLTISRVEAGDEADYYCQVWDTGSDPVVFGGGTKLTVL | 5.42 | 7.5 |  |  |
| 13NG0077 (scFv, V domains shown, purified scFv from the mini-recombination library; member of group m20; also called ZZ0SED-A07; copies: 1 + 1) VH: QVQLVQSGAEVKKPGASVKVSCKASGYTFTNYGLSWVRQAPGQGLEWMGWINYDGGNTQYGQEFQGRVTMTTDTSTSTAYMELRSLRSDDTAVYYCARDSSSSWARWFFDLWGRGTLVTVSS VL: SYVLTQPPSVSVAPGKTARIPCGGNMVGAYLVHWYQQKPGQAPVLIVYDDMDRPSGIPERFSGSNSGNTATLTISRVEAGDEADYYCQVWDTGSSPVVFGGGTKLTVL | 10.3 | 3.93 |  |  |
| 13NG0075 (scFv, V domains shown, purified scFv from the mini-recombination library; member of group m20; also called ZZ0SEE-A06; copies: 1 + 1) VH: QVQLVQSGAEVKKPGASVKVSCKASGYTFTNYGLSWVRQAPGQGLEWMGWINYDGGNTQYGQEFQGRVTMTTDTSTSTAYMELRSLRSDDTAVYYCARDSSSSWARWFFDLWGRGTLVTVSS VL: SYVLTQPPSVSVAPGKTARIPCGGNMVGARLVHWYQQKPGQAPVLVIMDDIDRPSGIPERFSGSNSGNTATLTISRVEAGDEADYYCQVWDTGSRPVVFGGGTKLTVL | 9.65 | 4.21 |  |  |
| 13NG0085 (scFv, V domains shown, purified scFv from the mini-recombination library; member of group m20; also called ZZ0SEF-G10; copies: 1 + 1) VH: QVQLVQSGAEVKKPGASVKVSCKASGYTFTNYGLSWVRQAPGQGLEWMGWINYDGGNTQYGQEFQGRVTMTTDTSTSTAYMELRSLRSDDTAVYYCARDSSSSWARWFFDLWGRGTLVTVSS VL: SYVLTQPPSVSVAPGKTARIPCGGNMVGARLVHWYQQKPGQAPVLIIMDDIDRPSGIPERFSGSNSGNTATLTISRVEAGDEADYYCQVWDTGSRPVVFGGGTKLTVL |  |  | 4.2 | 10.8 |
| 13NG0086 (scFv, V domains shown, purified scFv from the mini-recombination library; member of group m20; also called ZZ0SEB-F04; copies: 1 + 1) VH: QVQLVQSGAEVKKPGASVKVSCKASGYTFTNYGLSWVRQAPGQGLEWMGWINYDGGNTQYGQEFQGRVTMTTDTSTSTAYMELRSLRSDDTAVYYCARDSSSSWARWFFDLWGRGTLVTVSS VL: SYVLTQPPSVSVAPGKTARIPCGGNMVGARLVHWYQQKPGQAPVLIVYDDMDRPSGIPERFSGSNSGNTATLTISRVEAGDEADYYCQVWDTGSRPVVFGGGTKLTVL |  |  | 3.2 | 14.2 |
| 13NG0072 (scFv, V domains shown, purified scFv from the mini-recombination library; member of group m20; also called ZZ0SEA-H11; copies: 1 + 1) VH: QVQLVQSGAEVKKPGASVKVSCKASGYTFTNYGLSWVRQAPGQGLEWMGWINYDGGNTQYGQEFQGRVTMTTDTSTSTAYMELRSLRSDDTAVYYCARDSSSSWARWFFDLWGRGTLVTVSS VL: SYVLTQPPSVSVAPGKTARIPCGGNMVGARLVHWYQQKPGQAPVLIVYDDMDRPSGIPERFSGSNSGNTATLTISRVETGDEADYYCQVWDTGSRPVVFGGGTKLTVL | 12.8 | 3.16 |  |  |
| 13NG0079 (scFv, V domains shown, purified scFv from the mini-recombination library; member of group m20; also called ZZ0SEA-B02; copies: 1 + 1) VH: QVQLVQSGAEVKKPGASVKVSCKASGYTFTNYGLSWVRQAPGQGLEWMGWINYDGGNTQYGQEFQGRVTMTTDTSTSTAYMELRSLRSDDTAVYYCARDSSSSWARWFFDLWGRGTLVTVSS VL: SYVLTQPPSVSVAPGKTARIPCGGNLIGARLVHWYQQKPGQAPVLIVYDDMDRPSGIPERFSGSNSGNTATLTISRVEAGDEADYYCQVWDTGSLPVVFGGGTKLTVL |  |  | 5.8 | 7.86 |
| 13NG0070 (scFv, V domains shown, purified scFv from the mini-recombination library; member of group m20; also called ZZ0SED-B06; copies: 1 + 1) VH: QVQLVQSGAEVKKPGASVKVSCKASGYTFTNYGLSWVRQAPGQGLEWMGWINYDGGNTQYGQEFQGRVTMTTDTSTSTAYMELRSLRSDDTAVYYCARDSSSSWARWFFDLWGRGTLVTVSS VL: SYVLTQPPSVSVAPGKTARIPCGGNMVGARLVHWYQQKPGQAPVLIVFDDEDRPSGIPERFSGSNSGNTATLTISRVEAGDEADYYCQVWDTGSRPVVFGGGTKLTVL | 9.49 | 4.28 |  |  |
| 13NG0083 (antibody, V domains shown, also called unmodified 13NG0083; WT) VH: QVQLVQSGAEVKKPGASVKVSCKASGYTFTNYGLSWVRQAPGQGLEWMGWINYDGGNTQYGQEFQGRVTMTTDTSTSTAYMELRSLRSDDTAVYYCARDSSSSWARWFFDLWGRGTLVTVSS VL: SYVLTQPPSVSVAPGKTARIPCGGNMVGARLVHWYQQKPGQAPVLIVFDDEDRPSGIPERFSGSNSGNTATLTISRVEAGDEADYYCQVWDTGSSPVVFGGGTKLTVL |  |  | 5.2 | 8.88 |
